Test results reported in patent publication EP4786489A1, “IL-22 MUTANT, PREPARATION METHOD THEREFOR, AND USE THEREOF” (Nanjing Novoacine Biotechnology Co., Ltd., priority 2023, dated 2025).

T1: heterodimeric receptor complex (IL-22Rα/IL-10Rβ) (human, UniProt Q8N6P7 16-574; Q08334 20-325)
T1 sequence (looked up) 1: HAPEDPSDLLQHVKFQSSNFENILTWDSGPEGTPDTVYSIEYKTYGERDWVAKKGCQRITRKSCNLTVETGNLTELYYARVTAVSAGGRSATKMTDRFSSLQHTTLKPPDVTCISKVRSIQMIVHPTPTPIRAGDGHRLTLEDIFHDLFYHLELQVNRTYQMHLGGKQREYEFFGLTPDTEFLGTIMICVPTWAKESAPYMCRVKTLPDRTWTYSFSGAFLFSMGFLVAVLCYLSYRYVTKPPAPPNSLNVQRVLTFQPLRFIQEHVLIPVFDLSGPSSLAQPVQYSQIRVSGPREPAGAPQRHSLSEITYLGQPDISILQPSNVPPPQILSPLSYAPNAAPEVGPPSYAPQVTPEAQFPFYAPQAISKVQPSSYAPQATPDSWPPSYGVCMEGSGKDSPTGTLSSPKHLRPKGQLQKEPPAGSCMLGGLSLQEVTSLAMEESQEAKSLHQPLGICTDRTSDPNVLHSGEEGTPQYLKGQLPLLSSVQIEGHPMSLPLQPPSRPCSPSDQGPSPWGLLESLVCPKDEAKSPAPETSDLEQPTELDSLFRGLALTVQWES
T1 sequence (looked up) 2: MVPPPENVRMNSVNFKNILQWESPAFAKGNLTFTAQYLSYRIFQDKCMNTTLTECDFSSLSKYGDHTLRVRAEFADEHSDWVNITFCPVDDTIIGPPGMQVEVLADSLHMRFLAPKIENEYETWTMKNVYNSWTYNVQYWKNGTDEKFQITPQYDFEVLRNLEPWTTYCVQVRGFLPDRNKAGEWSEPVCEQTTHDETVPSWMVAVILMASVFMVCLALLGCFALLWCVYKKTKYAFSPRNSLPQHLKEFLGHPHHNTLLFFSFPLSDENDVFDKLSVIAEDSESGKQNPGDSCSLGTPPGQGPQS


How the values were obtained:
Experiment in all cases: cell-based or functional assay
[1] = biological target: heterodimeric receptor complex (IL-22Rα/IL-10Rβ) (human) (UniProt Q8N6P7)
[2] = biological target: T1, heterodimeric receptor complex …
[3] = biological target: T1, heterodimeric receptor complex …; remark: listed apart in the source
[4] = biological target: T1, heterodimeric receptor complex …; remark: listed apart in the source
[5] = biological target: T1, heterodimeric receptor complex …; remark: listed apart in the source
[6] = biological target: T1, heterodimeric receptor complex …; remark: listed apart in the source

Molecule	STAT1/STAT3 EC50 ratio (higher is better); FACS, HT29 cells [4]	STAT1 Activation EC50 (nM); pSTAT1 FACS, HT29 cells [4] [nM]	STAT3 Activation EC50 (nM); pSTAT3 FACS, HT29 cells [4] [nM]	also measured
IL-22-Fc (Fc fusion)	–	–	–	EC50 for STAT1 Activation (nM); pSTAT1 FACS, HT-29 cells [1]: 49.9 nM; EC50 for STAT3 Activation (nM); pSTAT3 FACS, HT-29 cells [1]: 12.9 nM; HaCaT: HT29 ratio (higher is better); p-STAT3 EC50, FACS [1]: 5.8; STAT1/STAT3 EC50 ratio (higher is better); FACS, HT29 cells [1]: 3.2; STAT1/STAT3 EC50 ratio (higher is better); FACS, HT-29 cells [1]: 3.9; STAT1 Activation EC50 (nM); pSTAT1 FACS, HT29 cells [1]: 12.6 nM; STAT3 Activation EC50 (nM); pSTAT3 FACS, HT29 cells [1]: 3.9 nM; p-STAT3 EC50 (nM), HaCaT; FACS [1]: 22.7 nM
wt IL-22 (ligand) APISSHCRLDKSNFQQPYITNRTFMLAKEASLADNNTDVRLIGEKLFHGVSMSERCYLMKQVLNFTLEEVLFPQSDRFQPYMQEVVPFLARLSNRLSTCHIEGDDLHIQRNVQKLKDTVKKLGESGEIKAIGELDLLFMSLRNACI	–	–	–	EC50 fold change of the test candidate relative to wt IL-22; STAT3 reporter gene assay, COLO205/SIE cells (Assay1) [2]: 1 fold; EC50 fold change of the test candidate relative to wt IL-22; STAT3 reporter gene assay, COLO205/SIE cells (Assay2) [2]: 1 fold; EC50 for STAT3 Activation (nM); STAT3 reporter gene assay, COLO205/SIE cells (Assay1) [2]: 0.00529 nM; EC50 for STAT3 Activation (nM); STAT3 reporter gene assay, COLO205/SIE cells (Assay2) [2]: 0.00303 nM; STAT1/STAT3 Ratio (higher is better); ELISA, COLO205 cells [3]: 1; STAT1 Activation EC50 (nM); p-STAT1 ELISA, COLO205 cells [3]: 0.939 nM; STAT1 Activation, Fold change relative to wt IL-22; p-STAT1 ELISA, COLO205 cells [3]: 1 fold; STAT3 Activation EC50 (nM); p-STAT3 ELISA, COLO205 cells [3]: 0.0663 nM; STAT3 Activation, Fold change relative to wt IL-22; p-STAT3 ELISA, COLO205 cells [3]: 1 fold
60K-PEG-IL22-P120C (ligand, Cys at position 87 (SEQ ID NO:1 numbering) conjugated to 60 kDa PEG-maleimide (thioether linkage)) APISSHCRLDKSNFQQPYITNRTFMLAKEASLADNNTDVRLIGEKLFHGVSMSERCYLMKQVLNFTLEEVLFPQSDRFQPYMQEVVCFLARLSNRLSTCHIEGDDLHIQRNVQKLKDTVKKLGESGEIKAIGELDLLFMSLRNACI	7.6	86.2	11.4	HaCaT: HT29 ratio (higher is better); p-STAT3 EC50, FACS [5]: 37.7; p-STAT3 EC50 (nM), HaCaT; FACS [5]: 428 nM
40K-PEG-IL22-P120C (ligand, Cys at position 87 (SEQ ID NO:1 numbering) conjugated to 40 kDa PEG-maleimide (thioether linkage)) APISSHCRLDKSNFQQPYITNRTFMLAKEASLADNNTDVRLIGEKLFHGVSMSERCYLMKQVLNFTLEEVLFPQSDRFQPYMQEVVCFLARLSNRLSTCHIEGDDLHIQRNVQKLKDTVKKLGESGEIKAIGELDLLFMSLRNACI	9.1	55.3	6.05	–
40K-PEG-IL22-P50C (ligand, Cys at position 17 (SEQ ID NO:1 numbering) conjugated to 40 kDa PEG-maleimide (thioether linkage)) APISSHCRLDKSNFQQCYITNRTFMLAKEASLADNNTDVRLIGEKLFHGVSMSERCYLMKQVLNFTLEEVLFPQSDRFQPYMQEVVPFLARLSNRLSTCHIEGDDLHIQRNVQKLKDTVKKLGESGEIKAIGELDLLFMSLRNACI	7.8	369	47.5	–
40K-PEG-IL22-D109C (ligand, Cys at position 76 (SEQ ID NO:1 numbering) conjugated to 40 kDa PEG-maleimide (thioether linkage)) APISSHCRLDKSNFQQPYITNRTFMLAKEASLADNNTDVRLIGEKLFHGVSMSERCYLMKQVLNFTLEEVLFPQSCRFQPYMQEVVPFLARLSNRLSTCHIEGDDLHIQRNVQKLKDTVKKLGESGEIKAIGELDLLFMSLRNACI	31.3	10.9	0.348	–
60K-PEG-IL22-D109C (ligand, Cys at position 76 (SEQ ID NO:1 numbering) conjugated to 60 kDa PEG-maleimide (thioether linkage)) APISSHCRLDKSNFQQPYITNRTFMLAKEASLADNNTDVRLIGEKLFHGVSMSERCYLMKQVLNFTLEEVLFPQSCRFQPYMQEVVPFLARLSNRLSTCHIEGDDLHIQRNVQKLKDTVKKLGESGEIKAIGELDLLFMSLRNACI	16.3	9.41	0.577	HaCaT: HT29 ratio (higher is better); p-STAT3 EC50, FACS [5]: 12.9; p-STAT3 EC50 (nM), HaCaT; FACS [5]: 7.44 nM
80K-PEG-IL22-P50C (ligand, Cys at position 17 (SEQ ID NO:1 numbering) conjugated to 80 kDa PEG-maleimide (thioether linkage)) APISSHCRLDKSNFQQCYITNRTFMLAKEASLADNNTDVRLIGEKLFHGVSMSERCYLMKQVLNFTLEEVLFPQSDRFQPYMQEVVPFLARLSNRLSTCHIEGDDLHIQRNVQKLKDTVKKLGESGEIKAIGELDLLFMSLRNACI	3.3	62.3	18.9	–
80K-PEG-IL22-D109C (ligand, Cys at position 76 (SEQ ID NO:1 numbering) conjugated to 80 kDa PEG-maleimide (thioether linkage)) APISSHCRLDKSNFQQPYITNRTFMLAKEASLADNNTDVRLIGEKLFHGVSMSERCYLMKQVLNFTLEEVLFPQSCRFQPYMQEVVPFLARLSNRLSTCHIEGDDLHIQRNVQKLKDTVKKLGESGEIKAIGELDLLFMSLRNACI	7.1	7	0.984	–
60K-PEG-IL22-P50C (ligand, Cys at position 17 (SEQ ID NO:1 numbering) conjugated to 60 kDa PEG-maleimide (thioether linkage)) APISSHCRLDKSNFQQCYITNRTFMLAKEASLADNNTDVRLIGEKLFHGVSMSERCYLMKQVLNFTLEEVLFPQSDRFQPYMQEVVPFLARLSNRLSTCHIEGDDLHIQRNVQKLKDTVKKLGESGEIKAIGELDLLFMSLRNACI	2.4	134	55.5	–

The next lines start with results.

STAT1/STAT3 EC50 ratio (higher is better); FACS, HT29 cells [4]	STAT1 Activation EC50 (nM); pSTAT1 FACS, HT29 cells [4] [nM]	STAT3 Activation EC50 (nM); pSTAT3 FACS, HT29 cells [4] [nM]	Molecule	also measured
29	574	19.8	80K-PEG-IL22-P120C (ligand, Cys at position 87 (SEQ ID NO:1 numbering) conjugated to 80 kDa PEG-maleimide (thioether linkage)) APISSHCRLDKSNFQQPYITNRTFMLAKEASLADNNTDVRLIGEKLFHGVSMSERCYLMKQVLNFTLEEVLFPQSDRFQPYMQEVVCFLARLSNRLSTCHIEGDDLHIQRNVQKLKDTVKKLGESGEIKAIGELDLLFMSLRNACI	–
9.3	23	2.47	hB3-his (ligand) APISSHCRLDKENFQQPYITNRTFMLAKEASLADNNTDVRLIGEKLFHGVSMSERCYLMKQVLNFTLEEVLFPQSDRFQPYMAEVVPFLAALSNALSTCHIEGDDLHIQRNVQKLKDTVKKLGESGEIKAIGELDLLFMSLRNACIHHHHHH	STAT1/STAT3 Ratio (higher is better); ELISA, COLO205 cells [3]: 2.34; STAT1 Activation EC50 (nM); p-STAT1 ELISA, COLO205 cells [3]: 17.4 nM; STAT1 Activation, Fold change relative to wt IL-22; p-STAT1 ELISA, COLO205 cells [3]: 18.5 fold; STAT3 Activation EC50 (nM); p-STAT3 ELISA, COLO205 cells [3]: 0.525 nM; STAT3 Activation, Fold change relative to wt IL-22; p-STAT3 ELISA, COLO205 cells [3]: 7.92 fold; EC50 for STAT1 Activation (nM); pSTAT1 FACS, HT-29 cells [6]: 279 nM; EC50 for STAT3 Activation (nM); pSTAT3 FACS, HT-29 cells [6]: 4.13 nM; STAT1/STAT3 EC50 ratio (higher is better); FACS, HT-29 cells [6]: 67.5
